Key:
[1] = molecular target: human CCR8 (human) (UniProt P51685); test: cell-based or functional assay
[2] = molecular target: human CCR8 (human) (UniProt P51685); test: flow cytometry on mammalian cells expressing human CCR8

Sequence of human CCR8 (human) (P51685 whole entry): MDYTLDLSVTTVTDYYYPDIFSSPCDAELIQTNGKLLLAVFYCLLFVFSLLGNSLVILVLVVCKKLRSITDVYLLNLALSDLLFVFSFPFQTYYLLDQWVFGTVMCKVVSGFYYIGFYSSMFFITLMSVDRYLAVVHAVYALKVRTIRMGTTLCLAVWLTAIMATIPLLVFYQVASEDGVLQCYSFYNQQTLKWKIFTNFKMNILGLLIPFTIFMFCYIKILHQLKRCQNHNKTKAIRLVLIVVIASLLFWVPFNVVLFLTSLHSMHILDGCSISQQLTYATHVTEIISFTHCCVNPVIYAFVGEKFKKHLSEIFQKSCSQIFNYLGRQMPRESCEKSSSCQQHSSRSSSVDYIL

Substance	IC50 antagonism of EC80 Human CCL1 Gα15/16 Biosensor [1] [nM]	IC50 antagonism of EC80 Human CCL1 Gαz Biosensor [1] [nM]	MFI Fold over Background (fold over background) [2]
MC148R = virokine from Molluscum contagiosum virus subtype 2 (MOCV) (ligand)	33.5	13.8	
ADI-26140: Human IgG1 isotype control (antibody)			2
CTL-33364 = Biolegend human CCR8 control IgG clone L263G8 (antibody)	1.62	0.798	268

Source: patent US20250019449A1
